B1: KIAA1671 peptide 600-615 (Uncharacterized protein KIAA1671), 16-mer library wild type / MDM2 SWIB (MDM2 SWIB/MDM2 domain, residues 17-125) (parent)
chain 1: TPEDDRSFQTVWATVF
chain 2: SQIPASEQETLVRPKPLLLKLLKSVGAQKDTYTMKEVLFYLGQYIMTKRLYDEKQQHIVYCSNDLLGDLFGVPSFSVKEHRKIYTMIYRNLVVVNQQESSDSGTSVSEN
B2: SH3BP2 peptide 408-423 (SH3 domain-binding protein 2), 16-mer library wild type / TNKS ANK (TNKS 12 ANK repeats, residues 174-649) (parent)
chain 1: PQLPHLQRSPPDGQSF
chain 2: TGVPAVSGALRELLEACRNGDVSRVKRLVDAANVNAKDMAGRKSSPLHFAAGFGRKDVVEHLLQMGANVHARDDGGLIPLHNACSFGHAEVVSLLLCQGADPNARDNWNYTPLHEAAIKGKIDVCIVLLQHGADPNIRNTDGKSALDLADPSAKAVLTGEYKKDELLEAARSGNEEKLMALLTPLNVNCHASDGRKSTPLHLAAGYNRVRIVQLLLQHGADVHAKDKGGLVPLHNACSYGHYEVTELLLKHGACVNAMDLWQFTPLHEAASKNRVEVCSLLLSHGADPTLVNCHGKSAVDMAPTPELRERLTYEFKGHSLLQAAREADLAKVKKTLALEIINFKQPQSHETALHCAVASLHPKRKQVTELLLRKGANVNEKNKDFMTPLHVAAERAHNDVMEVLHKHGAKMNALDTLGQTALHRAALAGHLQTCRLLLSYGSDPSIISLQGFTAAQMGNEAVQQILSESTPIRTSD

Variants of: B1
Assay: proteomic peptide phage display deep mutational scan (ProP-PD DMS): M13 P8 16-mer library selected against immobilised GST-tagged bait for four days (rounds), NGS of the eluted pools per day and pseudo-replica
Details: with MDM2 SWIB (MDM2 SWIB/MDM2 domain, residues 17-125); bait immobilised on MaxiSorp plates (10 µg), library pre-cleared on GST, 2 h binding at 4 °C, five washes; one round per day, days 1-4; value from days 2 and 3; keep out of graded; scale: average fractional NGS count over selection days 2 and 3

Screen value of substitutions, site by site:
chain 1 D4: V 0.000129; N 1.9e-05; S 0.0004; Y 2.12e-05; M 4.28e-05; A 0.00011; P 0.000107; I 8.68e-05; G 0.000914; T 0.00033
chain 1 R6: L 0.000264; Q 0.000155; A 0.000223; V 0.000461; K 0.000243; H 0.000397; E 6.31e-05; S 0.00021; M 0.000232; G 9.01e-05; F 0.000483; Y 0.000693; W 0.0002; T 4.17e-05; I 0.000114
chain 1 D5: S 0.00089; P 0.000202; M 0.000189; I 1.66e-05; K 1.66e-05; A 0.000323; Q 2.45e-05; T 0.000201; H 6.55e-05; Y 8.89e-05; F 3.53e-05; L 0.000477; W 0.000664; G 0.00021; V 0.000143
chain 1 V11: F 0.000216; L 0.000339; T 0; I 0.00157; A 0; Y 0.000214; E 0; M 0.000226; W 0.00167; Q 0.00061; N 0; H 0.0015
chain 1 A13: S 0.000227; W 0.000391; Q 5.55e-05; T 0.00011; I 0.000104; H 0.000327; L 9.44e-05; R 5.94e-05; D 1.83e-05; P 0; M 0.000146; N 0.000173; G 0; V 4.31e-05
chain 1 F8: A 0.00012; N 0.000113; Y 1.9e-05; W 0.000346; M 0.000128; P 7.93e-05; R 0; K 0
chain 1 W12: K 9.9e-05; T 9.54e-05; N 0; R 0; D 0
chain 1 P2: A 8.35e-05; D 6.18e-05; M 0.000288; T 0.000455; V 3.63e-05; E 6.83e-05; G 0.000243; F 5.33e-05; Q 9.58e-05; Y 0.000913; S 7.3e-05; R 3.9e-05; I 0.000159; L 6.52e-05; H 4.89e-05
chain 1 T10: D 1.9e-05; A 0.000165; H 0.000113; I 0.000209; Y 0.000166; M 0.00046; P 1.43e-05; Q 0.000116; L 6.08e-05; F 0.000114; W 0.000295; S 0.000471
chain 1 F16: D 0; Y 0; M 4.28e-05; A 0; I 5.77e-05; S 0.000197; W 1.6e-05; E 0; G 0

Variants of: B2
Assay: as above
Details: with TNKS ANK (TNKS 12 ANK repeats, residues 174-649); bait immobilised on MaxiSorp plates (10 µg), library pre-cleared on GST, 2 h binding at 4 °C, five washes; one round per day, days 1-4; value from days 2 and 3; keep out of graded; scale: average fractional NGS count over selection days 2 and 3

Screen value: each site, then its substitutions
chain 1 S9: G 7.17e-05; R 9.97e-05
chain 1 H5: M 6.6e-05; N 3.1e-05; A 0.000105; W 7.66e-05; D 5.12e-05; E 9.9e-05; L 0.000101
chain 1 F16: S 9.92e-05; K 4.17e-05
chain 1 L3: W 5.02e-05; D 9.07e-05; G 6.04e-05
chain 1 Q2: W 3.04e-05
chain 1 Q14: P 3.92e-05; W 0.000114; D 6.15e-05
chain 1 P10: R 5.9e-05; M 0.000103
chain 1 S15: G 9.21e-05
chain 1 P4: F 5.23e-05; R 3.21e-05; K 0.000103
chain 1 P11: I 0; M 0; L 0; S 2.19e-05; T 7.13e-05; Q 0; H 0; F 3.04e-05; E 0
chain 1 G13: A 0; Q 0; W 0
chain 1 Q7: P 3e-05; R 0.000135; N 0.000104
chain 1 L6: I 6.25e-05; K 8.36e-05
chain 1 D12: Y 3.32e-05; P 4.27e-05; H 5.06e-05; T 6.11e-05; F 0
chain 1 R8: S 8.91e-05; F 0; H 0; W 0; Y 0; A 0

Source: paper PMC12102759
